Molecular target: Pragmin 906-1368 (Pragmin C) (Rattus norvegicus) (UniProt D3ZMK9)
Experiment: MALLS + DLS + SAXS

stoichiometry N: 2
Substance: Pragmin 906-1368 (Pragmin C) (from UniProt D3ZMK9 906-1368) (domain or fragment)

— publication doi:10.1101/218669
